# T1: FLAG-tagged PME-1 (over-expression of wild-type PME-1) (human, UniProt Q9Y570 1-386)
# T1 construct: Expressed in ECC-1 cells and pulled down from lysate with FLAG resin; also called FLAG-PME-1; protein methylesterase 1; not shown: FLAG tag; an N-terminal FLAG vector p3XFLAG-CMV-10 is named in the methods for RL95-2 cells
# T1 sequence (looked up): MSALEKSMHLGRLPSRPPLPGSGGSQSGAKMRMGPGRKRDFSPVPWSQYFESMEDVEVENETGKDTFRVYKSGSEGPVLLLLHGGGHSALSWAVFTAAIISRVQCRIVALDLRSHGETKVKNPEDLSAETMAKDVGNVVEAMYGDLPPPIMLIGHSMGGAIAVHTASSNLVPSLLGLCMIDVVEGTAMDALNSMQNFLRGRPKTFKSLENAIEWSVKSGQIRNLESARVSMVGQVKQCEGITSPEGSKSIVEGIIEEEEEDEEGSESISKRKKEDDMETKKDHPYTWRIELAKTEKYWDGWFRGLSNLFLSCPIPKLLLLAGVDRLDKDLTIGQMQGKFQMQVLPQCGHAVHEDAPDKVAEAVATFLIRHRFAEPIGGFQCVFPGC
# T2: FLAG-tagged PME-1 S156A (catalytically inactive mutant) (human, UniProt Q9Y570 1-386)
# T2 construct: Expressed in ECC-1 cells and pulled down from lysate with FLAG resin; also called FLAG-PME-1 S156A; FLAG PME-1 S156A; not shown: FLAG tag; an N-terminal FLAG vector p3XFLAG-CMV-10 is named in the methods for RL95-2 cells
# T2 sequence (looked up): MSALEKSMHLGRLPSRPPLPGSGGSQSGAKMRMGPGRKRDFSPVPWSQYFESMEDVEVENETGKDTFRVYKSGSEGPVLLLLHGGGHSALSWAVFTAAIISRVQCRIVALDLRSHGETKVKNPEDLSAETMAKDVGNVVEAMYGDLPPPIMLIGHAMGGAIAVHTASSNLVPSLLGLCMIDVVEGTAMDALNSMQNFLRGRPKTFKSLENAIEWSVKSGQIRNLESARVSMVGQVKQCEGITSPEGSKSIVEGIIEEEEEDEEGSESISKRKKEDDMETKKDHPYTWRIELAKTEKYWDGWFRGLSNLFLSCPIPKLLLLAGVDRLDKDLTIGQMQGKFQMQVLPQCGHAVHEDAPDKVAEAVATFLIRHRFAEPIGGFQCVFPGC
# Legend:
# [1] = test system: RL95-2 cells; assay: TUNEL assay; assay type: cell-based, human; settings: 100 nM siRNA, vs control siRNA; DNase positive control
# From the text: To test for the involvement of apoptosis, we used siRNA against PME-1 or control siRNA and conducted an immunofluorescence assay called a TUNEL assay. In this assay, all cells were stained blue with the nuclear stain, DAPI, and cells that were undergoing apoptosis would stain green with the addition of fluorescein, which bound to fragmented DNA. Fragmented DNA is a hallmark of apoptotic cells. […] A positive control was included in the assay to determine that the assay conditions were optimal. In the positive control, RL95-2 cells were treated with DNase.
# RL95-2 cells were plated in a chamber-slide and allowed to grow over night at 37° C. Cells were transfected the next day with 100 nM of siRNA (Thermo Scientific) using Dharmafect 1 transfection reagent (siRNA sequences are summarized in Table S2). Transfections were repeated on day four and the cultures were terminated the day after. The assay was performed according to the manufacturer's instructions (Roche Applied Science, counterstained with DAPI and photographed using Leica DM16000 B microscope. Cells incubated with 1U/μl of DNase I (Life Technologies) served as a positive control. The experiment was repeated three times.
# [2] = target: T1, FLAG-tagged PME-1 (over-expression of …); assay: FLAG co-immunoprecipitation from ECC-1 lysate, western blot with anti-Ppp6c
# [3] = target: T2, FLAG-tagged PME-1 S156A (catalytically …); assay: as above
binding result [2],binding result [3],Molecule,detection of apoptotic cells [1]
,,"PPME1 siRNA no. 1: siRNA, SEQ ID NO: 4: TGG CTG GTG TTG ATA GAT T, bp 959-977 (guide TGGCTGGTGTTGATAGATT; listed as DNA, chemistry not given here; listed as Homo sapiens)",did not lead to detection of apoptotic cells
no binding,no binding,"Endogenous Ppp6c, the catalytic subunit of PP6 (enzyme, human, UniProt O00743 1-305, looked up, Endogenous protein of ECC-1 cell lysate, probed by western blot with anti-Ppp6c; also called protein phosphatase 6 catalytic subunit) MAPLDLDKYVEIARLCKYLPENDLKRLCDYVCDLLLEESNVQPVSTPVTVCGDIHGQFYDLCELFRTGGQVPDTNYIFMGDFVDRGYYSLETFTYLLALKAKWPDRITLLRGNHESRQITQVYGFYDECQTKYGNANAWRYCTKVFDMLTVAALIDEQILCVHGGLSPDIKTLDQIRTIERNQEIPHKGAFCDLVWSDPEDVDTWAISPRGAGWLFGAKVTNEFVHINNLKLICRAHQLVHEGYKFMFDEKLVTVWSAPNYCYRCGNIASIMVFKDVNTREPKLFRAVPDSERVIPPRTTTPYFL",
